From patent publication US20010010923A1, “MODIFIED CARBOXYPEPTIDASE” (priority 1997, published 2001)
“Also recorded” adds a separate entry of the source. Marks after values point to notes of the source that are not given here.

How the values were obtained:
[1] = Transpeptidation of FA-Ala-Xaa-OH with H-Gly-NH2, Table 2; assay type: biochemical; conditions: for Fraction of aminolysis (fa), P1' Ala: FA-Ala-Ala-OH 0.2 mM; for Fraction of aminolysis (fa), P1' Ala / Fraction of aminolysis (fa), P1' Leu / Fraction of aminolysis (fa), P1' Met / Fraction of aminolysis (fa), P1' Phe / Fraction of aminolysis (fa), P1' Val: 1.9 M H-Gly-NH2, pH 7.5, room temperature; for Fraction of aminolysis (fa), P1' Leu: FA-Ala-Leu-OH 0.2 mM; for Fraction of aminolysis (fa), P1' Met: FA-Ala-Met-OH 0.2 mM; for Fraction of aminolysis (fa), P1' Phe: FA-Ala-Phe-OH 0.2 mM; for Fraction of aminolysis (fa), P1' Val: FA-Ala-Val-OH 0.2 mM; for fraction of aminolysis compared to wild type, in words: larger, hydrophobic leaving group such as leucine
Experimental: (§1) Transamidation reactions were carried out generally as described in PCT Application WO 95/20039. In general, the method included dissolving the nucleophile (H-Leu-NH2, unless otherwise indicated) in 50 mM HEPES, 5 mM EDTA and adjusting the pH to 7.5, 5 μl of peptide substrate (8 mM Bz-G-A-R-A-R-A-OH, unless otherwise indicated, in methanol) was added to 190 μl nucleophile solution followed by 5 μl enzyme, resulting in a substrate concentration of 0.2 mM.
(§2) During the reaction, 20 μl aliquots were removed from the reaction mixture and added to 50 μl 1% trifluoroacetic acid to quench the reaction. The reactant composition was determined by HPLC using a Waters HPLC equipped with a C-18 Waters Novapac 4μ reverse phase column and various gradients of acetonitrile in 0.1% trifluoroacetic acid. The separation was monitored at 254 nm allowing the direct quantification of the products from the integrated peak areas. The composition of the reaction mixture was determined at least twvice during the reaction, the first when 20-50% (preferably 35%) of the substrate had been consumed in the reaction and the second time when 50-90% (preferably 80%) of the peptide substrate had been consumed.
(§3) The fraction of aminolysis (fa) was expressed as the ratio between the formed aminolysis product and the sum of all products formed. Unconsumed substrate was disregarded in the calculations.
Site specific mutagenesis was performed as described for Example 1 to produce the S1 mutants used below.
Transamidation reactions were performed as described for Example 1.

[2] = Transpeptidation of FA-Ala-OBzl with H-Leu-NH2, Table 3; assay type: biochemical; conditions: FA-Ala-OBzl 0.2 mM, pH 7.5; for fa: H-Leu-NH2; for KN(app): nucleophile H-Leu-NH2 concentration at which fa is half of maximum
Experimental: as §1, §2, §3
Site specific mutagenesis was performed as described in Example 1 to produce the specific substitution mutants described below. Transamidation reactions were performed as described for Example 1.
In table 3, below, KN(app) represents the nucleophile concentration at which fa is half of the maximum value (a measure for the dissociation constant of the nucleophile). famax is the highest possible fa obtained at saturation of the enzyme with the nucleophile.
KN(app) indicates the concentration at which famax/2 is reached and thus describes the apparent binding constant of the nucleophile. Because the competing hydrolysis reaction is thought to occur while the leaving group remains attached to the to the acyl-enzyme intermediate, a low KN(app) is preferred.

B1: T60Y: carboxypeptidase Y S1' mutant, substitution T60Y (protein, UniProt P00729 112-532, looked up, variant T60Y)
Carboxypeptidase Y: KIKDPKILGIDPNVTQYTGYLDVEDEDKHFFFWTFESRNDPAKDPVILWLNGGPGCSSLYGLFFELGPSSIGPDLKPIGNPYSWNSNATVIFLDQPVNVGFSYSGSSGVSNTVAAGKDVYNFLELFFDQFPEYVNKGQDFHIAGESYAGHYIPVFASEILSHKDRNFNLTSVLIGNGLTDPLTQYNYYEPMACGEGGEPSVLPSEECSAMEDSLERCLGLIESCYDSQSVWSCVPATIYCNNAQLAPYQRTGRNVYDIRKDCEGGNLCYPTLQDIDDYLNQDYVKEAVGAEVDHYESCNFDINRNFLFAGDWMKPYHTAVTDLLNQDLPILVYAGDKDFICNWLGNKAWTDVLPWKYDEEFASQKVRNWTASITDEVAGEVKSYKHFTYLRVFNGGHMVPFDVPENALSMVNEWIHGGFSL
Fraction of aminolysis (fa), P1' Ala [1]: 0.90 | Fraction of aminolysis (fa), P1' Leu [1]: 0.66 | Fraction of aminolysis (fa), P1' Met [1]: 0.58 | Fraction of aminolysis (fa), P1' Phe [1]: 0.51 | Fraction of aminolysis (fa), P1' Val [1]: 0.43 | fraction of aminolysis compared to wild type, in words [1]: improvement in fraction of aminolysis obtained; also recorded: most dramatic improvement; also recorded: most effective at increasing the fraction of aminolysis | fa [2]: 0.95^a

B2: M398G: carboxypeptidase Y S1' mutant, substitution M398G (protein, UniProt P00729 112-532, looked up, variant M398G)
Carboxypeptidase Y: KIKDPKILGIDPNVTQYTGYLDVEDEDKHFFFWTFESRNDPAKDPVILWLNGGPGCSSLTGLFFELGPSSIGPDLKPIGNPYSWNSNATVIFLDQPVNVGFSYSGSSGVSNTVAAGKDVYNFLELFFDQFPEYVNKGQDFHIAGESYAGHYIPVFASEILSHKDRNFNLTSVLIGNGLTDPLTQYNYYEPMACGEGGEPSVLPSEECSAMEDSLERCLGLIESCYDSQSVWSCVPATIYCNNAQLAPYQRTGRNVYDIRKDCEGGNLCYPTLQDIDDYLNQDYVKEAVGAEVDHYESCNFDINRNFLFAGDWMKPYHTAVTDLLNQDLPILVYAGDKDFICNWLGNKAWTDVLPWKYDEEFASQKVRNWTASITDEVAGEVKSYKHFTYLRVFNGGHGVPFDVPENALSMVNEWIHGGFSL
Fraction of aminolysis (fa), P1' Ala [1]: 0.93 | Fraction of aminolysis (fa), P1' Leu [1]: 0.59 | Fraction of aminolysis (fa), P1' Met [1]: 0.83 | Fraction of aminolysis (fa), P1' Phe [1]: 0.66 | Fraction of aminolysis (fa), P1' Val [1]: 0.42 | fraction of aminolysis compared to wild type, in words [1]: improvement in fraction of aminolysis obtained | fa [2]: 0.95^a | KN(app) [2]: 1.6^a mM

B3: M398V: carboxypeptidase Y S1' mutant, substitution M398V (protein, UniProt P00729 112-532, looked up, variant M398V)
Carboxypeptidase Y: KIKDPKILGIDPNVTQYTGYLDVEDEDKHFFFWTFESRNDPAKDPVILWLNGGPGCSSLTGLFFELGPSSIGPDLKPIGNPYSWNSNATVIFLDQPVNVGFSYSGSSGVSNTVAAGKDVYNFLELFFDQFPEYVNKGQDFHIAGESYAGHYIPVFASEILSHKDRNFNLTSVLIGNGLTDPLTQYNYYEPMACGEGGEPSVLPSEECSAMEDSLERCLGLIESCYDSQSVWSCVPATIYCNNAQLAPYQRTGRNVYDIRKDCEGGNLCYPTLQDIDDYLNQDYVKEAVGAEVDHYESCNFDINRNFLFAGDWMKPYHTAVTDLLNQDLPILVYAGDKDFICNWLGNKAWTDVLPWKYDEEFASQKVRNWTASITDEVAGEVKSYKHFTYLRVFNGGHVVPFDVPENALSMVNEWIHGGFSL
Fraction of aminolysis (fa), P1' Ala [1]: 0.93 | Fraction of aminolysis (fa), P1' Leu [1]: 0.91 | Fraction of aminolysis (fa), P1' Met [1]: 0.83 | Fraction of aminolysis (fa), P1' Phe [1]: 0.86 | Fraction of aminolysis (fa), P1' Val [1]: 0.81 | fraction of aminolysis compared to wild type, in words [1]: improvement in fraction of aminolysis obtained; also recorded: most dramatic improvement; also recorded: enhanced transpeptidation | fa [2]: 0.87^a | KN(app) [2]: 1.43^b mM

B4: M398I: carboxypeptidase Y S1' mutant, substitution M398I (protein, UniProt P00729 112-532, looked up, variant M398I)
Carboxypeptidase Y: KIKDPKILGIDPNVTQYTGYLDVEDEDKHFFFWTFESRNDPAKDPVILWLNGGPGCSSLTGLFFELGPSSIGPDLKPIGNPYSWNSNATVIFLDQPVNVGFSYSGSSGVSNTVAAGKDVYNFLELFFDQFPEYVNKGQDFHIAGESYAGHYIPVFASEILSHKDRNFNLTSVLIGNGLTDPLTQYNYYEPMACGEGGEPSVLPSEECSAMEDSLERCLGLIESCYDSQSVWSCVPATIYCNNAQLAPYQRTGRNVYDIRKDCEGGNLCYPTLQDIDDYLNQDYVKEAVGAEVDHYESCNFDINRNFLFAGDWMKPYHTAVTDLLNQDLPILVYAGDKDFICNWLGNKAWTDVLPWKYDEEFASQKVRNWTASITDEVAGEVKSYKHFTYLRVFNGGHIVPFDVPENALSMVNEWIHGGFSL
Fraction of aminolysis (fa), P1' Ala [1]: 0.93 | Fraction of aminolysis (fa), P1' Leu [1]: 0.91 | Fraction of aminolysis (fa), P1' Met [1]: 0.83 | Fraction of aminolysis (fa), P1' Phe [1]: 0.75 | Fraction of aminolysis (fa), P1' Val [1]: 0.87 | fraction of aminolysis compared to wild type, in words [1]: improvement in fraction of aminolysis obtained; also recorded: most dramatic improvement | fraction of aminolysis compared to wild type, in words ([1]; listed as M3981): enhanced transpeptidation | fa [2]: 0.94^a | KN(app) [2]: 0.91^b mM

B5: T60D: carboxypeptidase Y S1' mutant, substitution T60D (protein, UniProt P00729 112-532, looked up, variant T60D)
Carboxypeptidase Y: KIKDPKILGIDPNVTQYTGYLDVEDEDKHFFFWTFESRNDPAKDPVILWLNGGPGCSSLDGLFFELGPSSIGPDLKPIGNPYSWNSNATVIFLDQPVNVGFSYSGSSGVSNTVAAGKDVYNFLELFFDQFPEYVNKGQDFHIAGESYAGHYIPVFASEILSHKDRNFNLTSVLIGNGLTDPLTQYNYYEPMACGEGGEPSVLPSEECSAMEDSLERCLGLIESCYDSQSVWSCVPATIYCNNAQLAPYQRTGRNVYDIRKDCEGGNLCYPTLQDIDDYLNQDYVKEAVGAEVDHYESCNFDINRNFLFAGDWMKPYHTAVTDLLNQDLPILVYAGDKDFICNWLGNKAWTDVLPWKYDEEFASQKVRNWTASITDEVAGEVKSYKHFTYLRVFNGGHMVPFDVPENALSMVNEWIHGGFSL
Fraction of aminolysis (fa), P1' Ala [1]: 0.87 | Fraction of aminolysis (fa), P1' Leu [1]: 0.25 | Fraction of aminolysis (fa), P1' Met [1]: 0.15 | Fraction of aminolysis (fa), P1' Phe [1]: 0.15 | Fraction of aminolysis (fa), P1' Val [1]: 0.53 | fraction of aminolysis compared to wild type, in words [1]: improvement in fraction of aminolysis obtained | fa [2]: 0.94^a | KN(app) [2]: 1.5^c mM

B6: M398A: carboxypeptidase Y S1' mutant, substitution M398A (protein, UniProt P00729 112-532, looked up, variant M398A)
Carboxypeptidase Y: KIKDPKILGIDPNVTQYTGYLDVEDEDKHFFFWTFESRNDPAKDPVILWLNGGPGCSSLTGLFFELGPSSIGPDLKPIGNPYSWNSNATVIFLDQPVNVGFSYSGSSGVSNTVAAGKDVYNFLELFFDQFPEYVNKGQDFHIAGESYAGHYIPVFASEILSHKDRNFNLTSVLIGNGLTDPLTQYNYYEPMACGEGGEPSVLPSEECSAMEDSLERCLGLIESCYDSQSVWSCVPATIYCNNAQLAPYQRTGRNVYDIRKDCEGGNLCYPTLQDIDDYLNQDYVKEAVGAEVDHYESCNFDINRNFLFAGDWMKPYHTAVTDLLNQDLPILVYAGDKDFICNWLGNKAWTDVLPWKYDEEFASQKVRNWTASITDEVAGEVKSYKHFTYLRVFNGGHAVPFDVPENALSMVNEWIHGGFSL
Fraction of aminolysis (fa), P1' Ala [1]: 0.93 | Fraction of aminolysis (fa), P1' Leu [1]: 0.84 | Fraction of aminolysis (fa), P1' Met [1]: 0.89 | Fraction of aminolysis (fa), P1' Phe [1]: 0.84 | Fraction of aminolysis (fa), P1' Val [1]: 0.65 | fraction of aminolysis compared to wild type, in words [1]: improvement in fraction of aminolysis obtained; also recorded: enhanced transpeptidation | fa [2]: 0.93^a | KN(app) [2]: 0.83^a mM
